This note sets out measurements from the supplement of paper PMC9170038.

The subject of the series is MS2 coat protein. As to the kind of experiment: apparent KD of MS2 coat protein; designed switch direction (-1 OFF switch, 1 ON switch): -1; higher = weaker reporter binding. Summed up:
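For each design, the apparent KD is the median over clusters of curves fitted to normalised cluster fluorescence. Clusters held RNA switches with common flanks, transcribed on Illumina chips by stalled E. coli RNA polymerase. These were titrated with SNAP-549-labelled MS2 coat protein, doubling from 0.7 or 1.5 nM to 3 µM, without input, with 200 uM small-molecule ligand, or with an oligonucleotide input.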

Setting [1] is: input ligand: microRNA oligo, concentration not stated.
Where [2] appears, read: Eterna round: R95, input ligand: FMN 200 uM.
The mark [3] stands for this setting: Eterna round: R95, input ligand: microRNA oligo, concentration not stated.
[4] abbreviates: Eterna round: R95, input ligand: none.

“AGUGUGUGGCAGGAUAUUCUAAUCGUGAGUAGGGAAGAAGGGUCUACAUGAGGAUCACCCAUGUAAGCGGUUGA [Ex6 #43] (Eterna round: R97, puzzle: Exclusion 6)”: the “apparent KD of MS2 coat protein” value (input ligand: FMN 200 uM) came to 257 nM and the “apparent KD of MS2 coat protein” value (input ligand: none) came out at 209 nM.

For the sequence “AGUGUGUGGCAGGAUAUUCUAAUCUUUAGGAGGGAAGAAGGGUCUACAUGAGGAUCACCCAUGUAAGCGGUUGA [Ex6 #40] (Eterna round: R97, puzzle: Exclusion 6)”, the “apparent KD of MS2 coat protein” value (input ligand: FMN 200 uM) was 221 nM and the “apparent KD of MS2 coat protein” value (input ligand: none) turned out to be 75.3 nM.

Take “AGUGUGUGGCAGGAUAUUCUGUUGGUUCGGACAGAAGAAGGGUCUACAUGAGGAUCACCCAUGUAAGCGGUUGA [Ex6 #34] (Eterna round: R97, puzzle: Exclusion 6)”: the “apparent KD of MS2 coat protein” value (input ligand: FMN 200 uM) was 173 nM and the “apparent KD of MS2 coat protein” value (input ligand: none) was determined as 264 nM.

Regarding “AGUUCAAGGAAUUCUUCUGACAUGAGGAUCACCCAUGUGCUUUGCAAGUGUUGCUCGUCGCCUAGAACGUUAAGUAA [Eternabot (Original) Solution 32] (Eterna round: R97, puzzle: Sensor, turn-off variant 1)”, the “apparent KD of MS2 coat protein” value (input ligand: FMN 200 uM) was determined as 158 nM and the “apparent KD of MS2 coat protein” value (input ligand: none) was determined as 225 nM.

As for “AGUUGUUGCGCAGGAUAUGAGGAUCACCCAUAGUAGGAUAUCGAAAGGGAAGGACUGAGGAUUACCCAGAAGGGCGUGAUGACA [pwkr exNG2 2xF5 2xFMN.7] (Eterna round: R96, puzzle: Exclusion NG 2)”, the “apparent KD of MS2 coat protein” value reads like this: (input ligand: FMN 200 uM) 1530 nM; under setting [1], 292 nM; (input ligand: none) 302 nM.

In the case of “AGUUUACAUGAGGAUCACCCAUGUGAGGAUAUGGAUUCGCUGGCCGUAGCCAGUGGAUCCAGAAGGCGCAUGAU [JL-ex1-4.13] (Eterna round: R97, puzzle: Exclusion 1)”, the “apparent KD of MS2 coat protein” value amounted to 401 nM (input ligand: FMN 200 uM) and 86.3 nM (input ligand: none).

For the sequence “AUAAAGUGAGGAUAUCCAAUAUAUGACAUGAGGAUCACCCAUGUUUCCACUCGUACCUCCGGAGAAGGCACAAAAU [Ex5 #61] (Eterna round: R97, puzzle: Exclusion 5)”, the “apparent KD of MS2 coat protein” value runs as follows: (input ligand: FMN 200 uM) 24.5 nM; (input ligand: none) 30.5 nM.

For the sequence “AUAAAUCAUGUAGGAUAUGCGUGGAGAAACUAUGCAGAAGGACAUGAGGAUCACCCAUGUGCUUCCGUCUGCGUACAGAUGGUA [Mat - Exclusion NG 1 - Mod of JL - D9] (Eterna round: R96, puzzle: Exclusion NG 1)”, the “apparent KD of MS2 coat protein” value by setting is: (input ligand: FMN 200 uM) 134 nM; under setting [1], 20.1 nM; (input ligand: none) 27.3 nM.

Consider “AUAAAUCAUGUAGGAUAUGCGUGGCAAAGCUAUGCAGAAGGACAUGAGGAUCACCCAUGUUCUUCCGUCUGCGUACAGACGGAA [Mat - Exclusion NG 1 - Mod of JL - D40] (Eterna round: R96, puzzle: Exclusion NG 1)”, for which the “apparent KD of MS2 coat protein” value turned out to be 418 nM (input ligand: FMN 200 uM), 31.4 nM under setting [1] and 37.3 nM (input ligand: none).

“AUAAAUCAUGUAGGAUAUGCGUGGCGAAGCUAUGCAGAAGGACAUGAGGAUCACCCAUGUGCUUCCGUCUGCGUACAGACGGUA [Mat - Exclusion NG 1 - Mod of JL - D10] (Eterna round: R96, puzzle: Exclusion NG 1)”: the “apparent KD of MS2 coat protein” value reads like this: (input ligand: FMN 200 uM) 125 nM; under setting [1], 77.6 nM; (input ligand: none) 142 nM.

Regarding “AUAAAUCAUGUAGGAUAUGCGUGGCGAAGCUAUGCAGAAGGACAUGAGGAUCACCCAUGUGCUUGCGUCUGCGUACAGAUGCUA [Mat - Exclusion NG 1 - Mod of JL - D5] (Eterna round: R96, puzzle: Exclusion NG 1)”, the “apparent KD of MS2 coat protein” value came out at 330 nM (input ligand: FMN 200 uM), 37.7 nM under setting [1] and 51.7 nM (input ligand: none).

Turning to “AUAAAUUUAGAGGAUAUCUUAUAUGGGCGACCGAGAGAAGGCUGGACAUGAGGAUCACCCAUGUGCUUCGGUGA [Eternabot (L1) Solution 96] (Eterna round: R97, puzzle: Exclusion 6)”, the “apparent KD of MS2 coat protein” value worked out at 67.5 nM (input ligand: FMN 200 uM) and 75 nM (input ligand: none).

Turning to “AUAACAUGCUGGUGAUCAUACAUGAGGAUCACCCAUGUAACAAGCUUUUUGCUCGUCUUAUAAGAUCACCAGCAUGU [Stov1/9-A2] (Eterna round: R97, puzzle: Sensor, turn-off variant 1)”, the “apparent KD of MS2 coat protein” value by setting is: (input ligand: FMN 200 uM) 14.8 nM; (input ligand: none) 15.4 nM.

Consider “AUAACGAUAGUCAGGAUAUCGGUGGCAUCCGUCACCGAGAAGGGACAUGAGGAUCACCCAUGUUAAGCCUAUGA [Eternabot (L1) Solution 69] (Eterna round: R97, puzzle: Brourd's mod of Exclusion 4)”, for which the “apparent KD of MS2 coat protein” value by setting is: (input ligand: FMN 200 uM) 11.5 nM; (input ligand: none) 19.3 nM.

With “AUAAGCUUUGAGAUCCUUAACAUGAGGAUCACCCAUGUUCGUCUUAUGAUGGUCUGAUCCCUGAGGAUCGGACCGUU [JL-sv1-2.02 Brourd Mod] (puzzle: Sensor v3, turn-off variant 1)”, the “apparent KD of MS2 coat protein” value by setting is: under setting [2], 262 nM; under setting [3], 10.4 nM; under setting [4], 257 nM.

With “AUAAGGUGAGGAUAUCCACGACCCUACAUGAGGAUCACCCAUGUAUACAGUACGUGUAGAGGAGAAGGUACAUGUC [Eternabot (L2) Solution 78] (Eterna round: R97, puzzle: Exclusion 5)”, the “apparent KD of MS2 coat protein” value runs as follows: (input ligand: FMN 200 uM) 28.3 nM; (input ligand: none) 29.3 nM.

For the sequence “AUAAGUGAUAAGGAUAUCACUAGCUUCGGCUAGUGAGAAGGUAUCACAUGAGGAUCACCCAUGUGUUCCAAUAA [Ex6/7-A1] (Eterna round: R97, puzzle: Exclusion 6)”, the “apparent KD of MS2 coat protein” value (input ligand: FMN 200 uM) was 603 nM and the “apparent KD of MS2 coat protein” value (input ligand: none) was determined as 213 nM.

Turning to “AUAAUAAAACAUGAGGAUCACCCAUGUGGGUCGUUCUACUGGCAGGAUAUCGCCAGACAAUAAAACGAGAAGGGCCAGUUAAUA [Leanerrean] (Eterna round: R96, puzzle: Exclusion NG 3)”, the “apparent KD of MS2 coat protein” value amounted to 168 nM (input ligand: FMN 200 uM), 92.6 nM under setting [1] and 86 nM (input ligand: none).

Turning to “AUAAUAAAGGAGGAUAUCGUAUCGGAAACGAUACGAGAAGGUCUAACAUGAGGAUCACCCAUGUUCCUCAAUAA [Mat - Exclusion 6 - Eli Mod - D48] (puzzle: Exclusion 6)”, the “apparent KD of MS2 coat protein” value is, setting by setting: under setting [2], 54.5 nM; under setting [3], 35.9 nM; under setting [4], 36.1 nM.

For “AUAAUACAUGUAGGAUAUGCGUGGCGAAGCUAUGCAGAAGGACAUGAGGAUCACCCAUGUGCUAGCGUCUGCGUACAGAUGCUA [JL eng1 1.35 mod 3] (Eterna round: R96, puzzle: Exclusion NG 1)”, the “apparent KD of MS2 coat protein” value by setting is: (input ligand: FMN 200 uM) 310 nM; under setting [1], 21 nM; (input ligand: none) 44.1 nM.

Consider “AUAAUGUGAGGAUAUCAGUCGACUAGCUUCGGCUAGUCGACUGAGAAGGUACAUGAGGAUCACCCAUGUGGUUC [E4/11-B1] (Eterna round: R97, puzzle: Exclusion 4)”, for which the “apparent KD of MS2 coat protein” value came out at 885 nM (input ligand: FMN 200 uM) and 456 nM (input ligand: none).

Turning to “AUAAUGUGAGGAUAUCAGUCGUACAGCUGCGGCUGUACGACUGAGAAGGCACAUGAGGAUCACCCAUGUGGUCA [E4/5-A3] (Eterna round: R97, puzzle: Exclusion 4)”, the “apparent KD of MS2 coat protein” value by setting is: (input ligand: FMN 200 uM) 70.7 nM; (input ligand: none) 672 nM.

For “AUAAUUAGUUCAGGAUAUCAGCACGAUUAGUGCUGAGAAGGGAACAUGAGGAUCACCCAUGUGAUCAAUAUUAUAAUUUUAAUU [ENG1/12-B1] (Eterna round: R96, puzzle: Exclusion NG 1)”, the “apparent KD of MS2 coat protein” value (input ligand: FMN 200 uM) was determined as 281 nM, the “apparent KD of MS2 coat protein” value under setting [1] was found to be 540 nM and the “apparent KD of MS2 coat protein” value (input ligand: none) is 1150 nM.

As for “AUAAUUUAAGUCAGGAUAUACCUAUGGAAACAUAGGUAGAAGGGACAUGAGGAUCACCCAUGUUUAUAUACAUA [Fiskers BMX 4 - 4] (puzzle: Brourd's mod of Exclusion 4)”, the “apparent KD of MS2 coat protein” value was 29.8 nM under setting [2], 16.8 nM under setting [3] and 15.1 nM under setting [4].

Regarding “AUACCACGAGGAUAUCGUCUAUAAUACAUGAGGAUCACCCAUGUUAUAUCUGUAAUGUUUCGAGAAGGCGUGUGUU [JR_E5_Sub084] (Eterna round: R96, puzzle: Exclusion 5)”, the “apparent KD of MS2 coat protein” value reads like this: (input ligand: FMN 200 uM) 17 nM; under setting [1], 15.4 nM; (input ligand: none) 21.3 nM.

“AUACCACGAGGAUAUCGUCUAUAAUACAUGAGGAUCACCCAUGUUAUAUCUGUAAUGUUUCGAGAAGGCGUGUGUU [JR_E5_Sub084] (puzzle: Exclusion 5)”: under setting [3], the “apparent KD of MS2 coat protein” value came out at 17.9 nM.

In the case of “AUAUAGAUAGUCAGGAUAUGCUAGUGAUAACAGUAGUAGAAGGGACAUGAGGAUCACCCAUGUAGAUAGUGCAC [Brourd's EX4 #4] (Eterna round: R97, puzzle: Brourd's mod of Exclusion 4)”, the “apparent KD of MS2 coat protein” value (input ligand: FMN 200 uM) is 32.6 nM and the “apparent KD of MS2 coat protein” value (input ligand: none) is 22.5 nM.

Regarding “AUAUAGCGAGGAUAUACAUGAGGAUCACCCAUGUAGGUUCCGGGUUUUCCAGUAAAAUGUAGAAGGCGCAUGGA [EX3 B.5] (Eterna round: R97, puzzle: Exclusion 3)”, the “apparent KD of MS2 coat protein” value reads like this: (input ligand: FMN 200 uM) 99.4 nM; (input ligand: none) 44.6 nM.

Regarding “AUAUUAAGUGUGAGGAUAUGCUGGUCCUUGGAUCAGCAGAAGGCACAUGAGGAUCACCCAUGUAAUAUAUUUAU [Mat - Exclusion 4 - JL Mod - D47] (puzzle: Brourd's mod of Exclusion 4)”, the “apparent KD of MS2 coat protein” value under setting [3] was 78.6 nM.

Take “AUAUUGUGAGGAUAUCAGGUGUGCUAGCGUACUGGUACAUCUGAGAAGGCACAUGAGGAUCACCCAUGUUUCUU [Mat - Exclusion 4 - Mod of JL - D42] (puzzle: Exclusion 4)”: the “apparent KD of MS2 coat protein” value under setting [3] was 15.2 nM.
